Values belong to the binder of their own block, whether it stands above or below them.
How the values were obtained:
Test in all cases: holdup assay
Design in all cases: key: below the threshold = too weak to quantify, mostly under pKd 3.1 to 4
[1] = biological target: GRIP2_5, Q9C0E4
[2] = biological target: NHERF4_4, Q86UT5
[3] = biological target: PTPN3, P26045
[4] = biological target: T1, ARHGAP21, Q5T5U3
T1 sequence (Q5T5U3 45-169, limits assumed, looked up): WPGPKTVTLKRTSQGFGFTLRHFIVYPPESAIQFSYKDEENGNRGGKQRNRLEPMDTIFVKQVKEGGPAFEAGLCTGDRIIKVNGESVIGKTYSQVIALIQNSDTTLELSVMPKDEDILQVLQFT

[5] = biological target: Inadl_6, Q8NI35
[6] = biological target: IL16_4, Q14005
[7] = biological target: TJP1_3, Q07157
[8] = biological target: Inadl_2, Q8NI35
[9] = biological target: T2, SIPA1L2, Q9P2F8
T2 sequence (Q9P2F8 945-1036, limits assumed, looked up): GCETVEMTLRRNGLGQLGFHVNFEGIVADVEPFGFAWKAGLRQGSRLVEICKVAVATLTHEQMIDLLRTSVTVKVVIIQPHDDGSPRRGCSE

[10] = biological target: T3, PTPN13_1, Q12923
T3 sequence (Q12923 1088-1188, limits assumed, looked up): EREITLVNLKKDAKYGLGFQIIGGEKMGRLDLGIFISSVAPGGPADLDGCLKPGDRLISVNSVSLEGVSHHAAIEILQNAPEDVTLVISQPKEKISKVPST

[11] = biological target: T4, RADIL, Q96JH8
T4 sequence (Q96JH8 971-1071, limits assumed, looked up): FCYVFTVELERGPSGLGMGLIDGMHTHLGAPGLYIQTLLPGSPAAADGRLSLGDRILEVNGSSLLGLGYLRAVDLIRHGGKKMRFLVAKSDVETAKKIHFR

[12] = biological target: T5, MPDZ_5, O75970
T5 sequence (O75970 695-796, limits assumed, looked up): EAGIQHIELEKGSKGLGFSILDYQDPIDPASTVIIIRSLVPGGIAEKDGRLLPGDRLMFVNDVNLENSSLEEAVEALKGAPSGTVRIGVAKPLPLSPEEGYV

[13] = biological target: T6, CARD11, Q9BXL7
T6 sequence (Q9BXL7 662-765, limits assumed, looked up): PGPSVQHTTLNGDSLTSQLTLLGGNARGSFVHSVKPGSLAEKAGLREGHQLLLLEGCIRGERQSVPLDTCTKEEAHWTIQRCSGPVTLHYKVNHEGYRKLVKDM

[14] = biological target: T7, MPP6, Q9NZW5
T7 sequence (Q9NZW5 125-219, limits assumed, looked up): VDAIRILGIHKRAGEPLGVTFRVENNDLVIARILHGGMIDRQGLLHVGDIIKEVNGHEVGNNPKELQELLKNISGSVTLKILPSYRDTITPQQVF

[15] = biological target: HTRA2, O43464
[16] = biological target: T8, MPDZ_10, O75970
T8 sequence (O75970 1624-1722, limits assumed, looked up): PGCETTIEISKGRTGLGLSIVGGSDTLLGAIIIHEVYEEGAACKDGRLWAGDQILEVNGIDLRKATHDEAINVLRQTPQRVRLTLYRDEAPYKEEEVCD

[17] = biological target: PDLIM1, O00151
[18] = biological target: T9, RAPGEF6, Q8TEU7
T9 sequence (Q8TEU7 525-625, limits assumed, looked up): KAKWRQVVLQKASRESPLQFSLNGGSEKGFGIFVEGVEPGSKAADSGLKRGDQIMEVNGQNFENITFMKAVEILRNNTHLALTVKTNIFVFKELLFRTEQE

[19] = biological target: Inadl_3, Q8NI35
[20] = biological target: T10, DVL3, Q92997
T10 sequence (Q92997 244-331, limits assumed, looked up): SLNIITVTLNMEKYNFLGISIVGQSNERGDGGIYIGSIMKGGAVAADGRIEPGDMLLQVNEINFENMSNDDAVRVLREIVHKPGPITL

[21] = biological target: T11, LIN7C, Q9NUP9
T11 sequence (Q9NUP9 88-185, limits assumed, looked up): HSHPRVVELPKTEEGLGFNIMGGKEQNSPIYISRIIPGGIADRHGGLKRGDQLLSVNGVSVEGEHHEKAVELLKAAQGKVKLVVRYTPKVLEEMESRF

[22] = biological target: MAGI1_2, Q96QZ7; conditions: plain residues with an end cap or a label only (N-terminal biotin on a linker: ttds)
[23] = biological target: T12, ARHGEF11, O15085; conditions: plain residues with an end cap or a label only (N-terminal biotin on a linker: ttds)
T12 sequence (O15085 42-136, limits assumed, looked up): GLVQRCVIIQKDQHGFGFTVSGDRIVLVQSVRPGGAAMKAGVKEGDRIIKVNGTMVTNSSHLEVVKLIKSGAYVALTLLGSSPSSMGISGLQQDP

[24] = biological target: GIPC2, Q8TF65; conditions: plain residues with an end cap or a label only (N-terminal biotin on a linker: ttds)
[25] = biological target: ARHGEF12, Q9NZN5-2; conditions: plain residues with an end cap or a label only (N-terminal biotin on a linker: ttds)
[26] = plain residues with an end cap or a label only (N-terminal biotin on a linker: ahx)
[27] = plain residues with an end cap or a label only (N-terminal biotin on a linker: ttds)

Sequence of TJP1_3, Q07157 (Q07157 416-512): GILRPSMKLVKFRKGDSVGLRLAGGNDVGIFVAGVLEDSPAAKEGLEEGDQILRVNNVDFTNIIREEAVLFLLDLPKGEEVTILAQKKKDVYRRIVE
Sequence of Inadl_6, Q8NI35 (Q8NI35 1058-1167): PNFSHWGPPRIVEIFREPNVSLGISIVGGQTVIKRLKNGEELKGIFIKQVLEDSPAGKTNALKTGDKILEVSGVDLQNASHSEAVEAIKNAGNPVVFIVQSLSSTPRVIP
Sequence of Inadl_3, Q8NI35 (Q8NI35 359-469): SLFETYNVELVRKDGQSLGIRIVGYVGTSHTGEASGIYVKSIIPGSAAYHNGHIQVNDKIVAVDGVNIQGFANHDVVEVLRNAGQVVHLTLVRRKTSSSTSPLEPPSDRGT
Sequence of HTRA2, O43464 (O43464 355-458): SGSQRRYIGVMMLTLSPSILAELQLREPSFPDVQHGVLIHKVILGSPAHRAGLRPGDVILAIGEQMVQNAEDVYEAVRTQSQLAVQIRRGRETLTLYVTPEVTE
Sequence of GRIP2_5, Q9C0E4 (Q9C0E4 544-642): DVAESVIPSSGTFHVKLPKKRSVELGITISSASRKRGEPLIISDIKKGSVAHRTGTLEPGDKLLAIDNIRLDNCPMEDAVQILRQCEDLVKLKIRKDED
Sequence of NHERF4_4, Q86UT5 (Q86UT5 464-550): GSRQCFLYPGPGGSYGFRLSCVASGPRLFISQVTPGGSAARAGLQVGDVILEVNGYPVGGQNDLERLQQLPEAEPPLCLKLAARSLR
Sequence of Inadl_2, Q8NI35 (Q8NI35 238-335): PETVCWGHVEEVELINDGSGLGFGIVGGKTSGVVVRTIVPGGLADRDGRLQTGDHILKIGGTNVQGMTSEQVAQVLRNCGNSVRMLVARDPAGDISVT
Sequence of IL16_4, Q14005 (Q14005 1229-1329): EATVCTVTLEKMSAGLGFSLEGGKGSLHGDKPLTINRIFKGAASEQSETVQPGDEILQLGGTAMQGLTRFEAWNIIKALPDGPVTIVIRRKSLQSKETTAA
Sequence of PDLIM1, O00151 (O00151 1-87): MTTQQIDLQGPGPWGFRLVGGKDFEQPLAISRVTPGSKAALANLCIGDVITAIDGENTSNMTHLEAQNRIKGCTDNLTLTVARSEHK
Sequence of PTPN3, P26045 (P26045 505-587): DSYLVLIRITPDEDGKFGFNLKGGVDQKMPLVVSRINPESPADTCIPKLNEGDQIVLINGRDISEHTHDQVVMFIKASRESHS
Sequence of ARHGEF12, Q9NZN5-2 (Q9NZN5 other isoform, or with tags, fused parts or gaps): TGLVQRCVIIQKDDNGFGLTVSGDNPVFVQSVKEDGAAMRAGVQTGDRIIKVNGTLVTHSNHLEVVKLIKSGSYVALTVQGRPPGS
Sequence of MAGI1_2, Q96QZ7 (Q96QZ7 456-580): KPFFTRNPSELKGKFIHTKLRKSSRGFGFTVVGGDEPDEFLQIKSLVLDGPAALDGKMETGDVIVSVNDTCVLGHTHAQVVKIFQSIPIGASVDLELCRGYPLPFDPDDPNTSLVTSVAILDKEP
Sequence of GIPC2, Q8TF65 (Q8TF65 112-203): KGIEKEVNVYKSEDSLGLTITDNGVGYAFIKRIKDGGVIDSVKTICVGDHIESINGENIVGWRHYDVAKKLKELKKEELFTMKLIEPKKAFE

pKd [1, 26]: below the threshold | pKd [2, 26]: below the threshold | pKd [3, 26]: below the threshold | pKd [4, 26]: below the threshold | pKd [5, 26]: below the threshold | pKd [6, 26]: below the threshold | pKd [7, 26]: below the threshold | pKd [8, 26]: below the threshold | pKd [9, 26]: below the threshold | pKd [10, 26]: below the threshold | pKd [11, 26]: 3.99 | pKd [12, 26]: below the threshold | pKd [13, 26]: below the threshold | pKd [14, 26]: below the threshold | pKd [15, 26]: below the threshold | pKd [16, 26]: 4.07 | pKd [17, 26]: below the threshold | pKd [18, 26]: below the threshold | pKd [19, 26]: below the threshold | pKd [20, 26]: below the threshold | pKd [21, 26]: below the threshold
Binder: LCKSHAFSHV [PDLIM7, Q9NR12;Q9NR12-1]

pKd [22]: below the threshold | pKd [1, 27]: below the threshold | pKd [2, 27]: below the threshold | pKd [3, 27]: 4.92 | pKd [4, 27]: 3.78 | pKd [5, 27]: 3.93 | pKd [6, 27]: below the threshold | pKd [7, 27]: below the threshold | pKd [8, 27]: below the threshold | pKd [9, 27]: below the threshold | pKd [10, 27]: below the threshold | pKd [11, 27]: below the threshold | pKd [12, 27]: below the threshold | pKd [13, 27]: below the threshold | pKd [23]: 4 | pKd [14, 27]: below the threshold | pKd [15, 27]: below the threshold | pKd [16, 27]: below the threshold | pKd [17, 27]: 4.29 | pKd [24]: below the threshold | pKd [18, 27]: below the threshold | pKd [19, 27]: below the threshold | pKd [20, 27]: below the threshold | pKd [21, 27]: 3.74 | pKd [25]: 4.32
Binder: CLDTSRETDL [KCNA5, P22460]

pKd [22]: below the threshold | pKd [1, 27]: below the threshold | pKd [2, 27]: below the threshold | pKd [3, 27]: 3.94 | pKd [4, 27]: below the threshold | pKd [5, 27]: 3.82 | pKd [6, 27]: 3.5 | pKd [7, 27]: below the threshold | pKd [8, 27]: below the threshold | pKd [9, 27]: below the threshold | pKd [10, 27]: below the threshold | pKd [11, 27]: 3.91 | pKd [12, 27]: 3.46 | pKd [13, 27]: below the threshold | pKd [23]: 4.33 | pKd [14, 27]: below the threshold | pKd [15, 27]: below the threshold | pKd [16, 27]: 3.98 | pKd [17, 27]: below the threshold | pKd [18, 27]: below the threshold | pKd [19, 27]: 3.45 | pKd [20, 27]: below the threshold | pKd [21, 27]: below the threshold | pKd [25]: 4.2
Binder: DEDQHTQITKV [PTEN, P60484]

— paper PMC9482650, “Quantitative fragmentomics allow affinity mapping of interactomes” (Nature Communications, 2022)
